Laboratory results: publication doi:10.1101/2020.02.06.938233 (bioRxiv, 2020)

Molecular target: the molecule itself
Experiment: FRET or BRET

B1: UL44(2-433), wild type, as CFP, YFP or RLuc fusion in HEK 293T cells (natural protein)
chain: DRKTRLSEPPTLALRLKPYKTAIQQLRSVIRALKENTTVTFLPTPSLILQTVRSHCVSKITFNSSCLYITDKSFQPKTINNSTPLLGNFMYLTSSKDLTKFYVQDISDLSAKISMCAPDFNMEFSSACVHGQDIVRESENSAVHVDLDFGVVADLLKWIGPHTRVKRNVKKAPCPTGTVQILVHAGPPAIKFILTNGSELEFTANNRVSFHGVKNMRINVQLKNFYQTLLNCAVTKLPCTLRIVTEHDTLLYVASRNGLFAVENFLTEEPFQRGDPFDKNYVGNSGKSRGGGGGGGSLSSLANAGGLHDDGPGLDNDLMNEPMGLGGLGGGGGGGGKKHDRGGGGGSGTRKMSSGGGGGDHDHGLSSKEKYEQHKITSYLTSKGGSGGGGGGGGGGLDRNSGNYFNDAKEESDSEDSVTFEFVPNTKKQKCG
BRET ratio: 0.36 ± 0.1
